Results reported in patent publication US12339286B2, “Metal-reducing enzymatic tag for optical and electron microscopy” (Colorado State University Research Foundation, priority 2018, dated 2025).
Several values for one entry are separate records, joined by “and”; a condition that tells them apart may be missing. Equal entries are not always repeated. Ends that are not written are not given here.

What was measured:
[1] = molecular target: T1, Pseudomonas moraviensis stanleyea GRLMR-SeBP (glutathione reductase-like metalloid reductase, GRLMR, with the selenium nanoparticle binding peptide SeBP/SeBP1, (Pseudomonas moraviensis, UniProt A0A2A2PF31, INS452LTPHKHHKHLHA)); experiment: KM and kcat study: NADPH consumption at 340 nm, V0 vs substrate concentration; format: biochemical; details: substrate HNaSeO3; PBS, pH 7.4; 13 μg of enzyme; 200 μM NADPH; 0.05 mM-2 mM substrate
T1 sequence (A0A2A2PF31 1-452 INS452LTPHKHHKHLHA): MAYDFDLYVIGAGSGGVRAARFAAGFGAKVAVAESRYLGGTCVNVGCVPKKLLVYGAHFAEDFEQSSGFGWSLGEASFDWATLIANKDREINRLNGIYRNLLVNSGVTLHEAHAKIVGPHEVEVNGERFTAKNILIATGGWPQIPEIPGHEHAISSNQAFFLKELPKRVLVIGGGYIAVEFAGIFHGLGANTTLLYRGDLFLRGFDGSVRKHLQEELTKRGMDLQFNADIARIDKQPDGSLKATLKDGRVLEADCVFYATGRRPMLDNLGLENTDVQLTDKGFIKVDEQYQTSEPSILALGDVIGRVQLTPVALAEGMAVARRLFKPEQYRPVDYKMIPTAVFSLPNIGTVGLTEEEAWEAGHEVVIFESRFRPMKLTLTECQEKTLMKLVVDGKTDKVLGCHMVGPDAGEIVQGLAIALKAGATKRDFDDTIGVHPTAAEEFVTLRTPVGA
Text: (§1) Because of the dramatic difference in SeBP size, morphology and aggregation state that depends on SeBP concatenation to GRLMR, whether this concatenation also alters the kinetic properties of the enzyme was investigated. To explore this possibility, NADPH concentrations were monitored spectroscopically during GRLMR enzymatic reactions to establish fundamental enzymatic kinetics in the presence and absence of the peptide. FIG. 4 depicts the plots of V0s attained by the GRLMR with and without SeBP over a range of substrate concentrations.
(§2) Initial velocities (V0) of the GRLMR-SeBP were performed in various concentrations of HNaSeO3 or GSSG while monitoring 340 nm correlating to NADPH absorbance. The reactions were run in PBS, pH 7.4 and with 13 μg of enzyme with substrate SeO3^2− (1.5 μg of enzyme with substrate GSSG) and 200 μM of NADPH with 0.05 mM-2 mM of substrate. Enzymatic V0s were plotted against substrate concentration in OriginPro from which KM and kcat could then be calculated.

[2] = molecular target: Pseudomonas moraviensis stanleyea GRLMR (glutathione reductase-like metalloid reductase), without SeBP (Pseudomonas moraviensis, UniProt A0A2A2PF31); experiment: as above; format: biochemical; details: substrate HNaSeO3; PBS, pH 7.4; 13 μg of enzyme; 200 μM NADPH; 0.05 mM-2 mM substrate
Text: as §1, §2

[3] = molecular target: glutathione reductase-like metalloid reductase (GRLMR) (Pseudomonas moraviensis stanleyae); experiment: negative binding assay: phage (input 10^10 pfu) on wells coated with unreacted GRLMR, acid-eluted phage titered on E. coli

Wild Type M13 phage (no inserted sequence), sequence (P69168 19-424 limits assumed): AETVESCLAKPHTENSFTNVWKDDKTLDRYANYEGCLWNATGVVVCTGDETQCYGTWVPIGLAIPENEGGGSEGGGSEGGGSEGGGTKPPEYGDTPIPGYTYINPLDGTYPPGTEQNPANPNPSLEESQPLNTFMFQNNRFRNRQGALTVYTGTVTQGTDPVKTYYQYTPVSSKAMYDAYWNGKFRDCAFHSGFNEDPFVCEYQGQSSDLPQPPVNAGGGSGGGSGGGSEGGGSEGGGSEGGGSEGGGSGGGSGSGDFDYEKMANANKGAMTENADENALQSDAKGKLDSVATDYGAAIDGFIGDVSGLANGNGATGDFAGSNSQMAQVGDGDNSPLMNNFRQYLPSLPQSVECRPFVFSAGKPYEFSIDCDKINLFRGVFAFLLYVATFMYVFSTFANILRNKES

## O=[Se]([O-])O.[Na+] [HNaSeO3]
[1]
  Km: 217 ± 57 µM
  kcat: 0.67193 ± 0.04143 s⁻¹ and 0.67193 s⁻¹
[2]
  Km: 1920 ± 1280 µM
  kcat: 0.38038 ± 0.1473 s⁻¹ and 0.38038 s⁻¹

## Wild Type M13 phage (no inserted sequence) (from UniProt P69168 19-424)
[3]
  eluted phage titer (pfu): 150000 pfu

## GPHHMHHHRTHH-{M13 pIII} (peptide, not shown: large carriers, also: displayed on M13 phage pIII, linker not given here) [SeBP2 (…) displayed on M13 phage]
[3]
  eluted phage titer (pfu): 2.1e+09 pfu

## WPRHHWHTNYMR-{M13 pIII} (peptide, not shown: large carriers, also: displayed on M13 phage pIII, linker not given here) [SeBP3 (…) displayed on M13 phage]
[3]
  eluted phage titer (pfu): 3.9e+08 pfu

## THYNPLRINPIT-{M13 pIII} (peptide, not shown: large carriers, also: displayed on M13 phage pIII, linker not given here) [SeBP5 (…) displayed on M13 phage]
[3]
  eluted phage titer (pfu): 680000 pfu

## GWHSPHAHWRVK-{M13 pIII} (peptide, not shown: large carriers, also: displayed on M13 phage pIII, linker not given here) [SeBP4 (…) displayed on M13 phage]
[3]
  eluted phage titer (pfu): 330000 pfu
